# Source: the Immune Epitope Database (IEDB)
# Tests used:
# [1] = molecular target: HLA-B*15:01; assay: IEDB peptide-MHC binding, purified MHC/direct/fluorescence; filed as Kd, often an IC50 or EC50 that approximates it; ≥ and ≤ were set here for values at or beyond the usual limits of such assays
# [2] = molecular target: HLA-B*40:01; assay: as above
# [3] = molecular target: HLA-B*27:05; assay: as above
# [4] = molecular target: HLA-A*03:01; assay: as above
# [5] = molecular target: HLA-A*31:01; assay: as above
# [6] = molecular target: HLA-A*11:01; assay: as above
# [7] = molecular target: HLA-A*01:01; assay: as above
# [8] = molecular target: HLA-A*02:01; assay: as above
# [9] = molecular target: HLA-B*08:01; assay: as above
# [10] = molecular target: HLA-B*58:01; assay: as above
# [11] = molecular target: HLA-A*26:01; assay: as above
# [12] = molecular target: HLA-A*69:01; assay: as above
# [13] = molecular target: HLA-A*24:03; assay: as above
# [14] = molecular target: HLA-B*44:02; assay: as above
# [15] = molecular target: HLA-B*07:02; assay: as above
# [16] = molecular target: HLA-A*30:01; assay: as above
# [17] = molecular target: HLA-B*07:02; assay: IEDB peptide-MHC binding, purified MHC/competitive/fluorescence; ≥ and ≤ were set here for values at or beyond the usual limits of such assays; settings: source organism: Zaire ebolavirus
# [18] = molecular target: HLA-B*15:01; assay: IEDB peptide-MHC binding, purified MHC/competitive/fluorescence; filed as Kd, often an IC50 or EC50 that approximates it; ≥ and ≤ were set here for values at or beyond the usual limits of such assays
# [19] = molecular target: HLA-B*57:01; assay: as above
# [20] = molecular target: HLA-B*18:01; assay: as above
# [21] = molecular target: HLA-A*02:16; assay: as above
# [22] = molecular target: HLA-A*03:01; assay: as above
# [23] = molecular target: HLA-A*68:02; assay: as above
# [24] = molecular target: HLA-B*27:03; assay: as above
# [25] = molecular target: HLA-B*39:01; assay: as above
# [26] = molecular target: HLA-B*46:01; assay: as above
# [27] = molecular target: HLA-A*02:19; assay: as above
# [28] = molecular target: HLA-A*02:01; assay: as above
# [29] = molecular target: HLA-B*51:01; assay: as above
# [30] = molecular target: HLA-A*26:01; assay: as above
# [31] = molecular target: HLA-A*02:12; assay: as above
# [32] = molecular target: HLA-A*69:01; assay: as above
# [33] = molecular target: HLA-A*02:11; assay: as above
# [34] = molecular target: HLA-B*15:17; assay: as above; settings: source organism: Vibrio vulnificus YJ016
# [35] = molecular target: HLA-A*02:03; assay: as above
# [36] = molecular target: HLA-A*29:02; assay: as above
# [37] = molecular target: HLA-A*24:02; assay: IEDB peptide-MHC binding, purified MHC/competitive/fluorescence; ≥ and ≤ were set here for values at or beyond the usual limits of such assays; settings: source organism: Zaire ebolavirus
# [38] = molecular target: HLA-A*02:01; assay: as above; settings: source organism: Zaire ebolavirus
# [39] = molecular target: HLA-A*29:02; assay: IEDB peptide-MHC binding, purified MHC/direct/fluorescence; filed as Kd, often an IC50 or EC50 that approximates it; ≥ and ≤ were set here for values at or beyond the usual limits of such assays; settings: source organism: Entamoeba histolytica HM-1:IMSS
# [40] = molecular target: HLA-B*57:01; assay: as above; settings: source organism: Entamoeba histolytica HM-1:IMSS
# [41] = molecular target: HLA-B*18:01; assay: as above; settings: source organism: Entamoeba histolytica HM-1:IMSS
# [42] = source organism: Rickettsia conorii
# [43] = source organism: Rickettsia sibirica
# [44] = source organism: Vibrio vulnificus YJ016
# [45] = source organism: La Crosse virus
# [46] = source organism: Campylobacter jejuni subsp. jejuni NCTC 11168 = ATCC 700819
# [47] = source organism: Cryptosporidium parvum Iowa II
# [48] = source organism: Entamoeba histolytica HM-1:IMSS
# [49] = source organism: Campylobacter jejuni
sequence,measurement,setting,value
RTGDIGCFK,Kd,[1]; [42],≥ 20 µM
same,Kd,[2]; [42],≥ 20 µM
same,Kd,[3]; [42],≥ 20 µM
same,Kd,[4]; [43],0.836 µM
same,Kd,[5]; [43],0.223 µM
same,Kd,[6]; [43],0.0688 µM
same,Kd,[7]; [42],≥ 20 µM
same,Kd,[8]; [42],≥ 20 µM
same,Kd,[9]; [42],≥ 20 µM
same,Kd,[10]; [42],≥ 20 µM
same,Kd,[11]; [42],≥ 20 µM
same,Kd,[12]; [42],≥ 20 µM
same,Kd,[13]; [42],≥ 20 µM
same,Kd,[14]; [42],≥ 20 µM
same,Kd,[15]; [42],≥ 20 µM
same,Kd,[16]; [43],0.0355 µM
ENTNTSKST,IC50,[17],≥ 200 µM
DFISMYFPW,Kd,[18]; [44],≥ 20 µM
same,Kd,[19]; [44],≥ 20 µM
same,Kd,[20]; [44],0.946 µM
same,Kd,[21]; [44],≥ 20 µM
same,Kd,[22]; [44],≥ 20 µM
same,Kd,[23]; [44],≥ 20 µM
same,Kd,[24]; [44],≥ 20 µM
same,Kd,[25]; [44],≥ 20 µM
same,Kd,[26]; [44],≥ 20 µM
same,Kd,[27]; [44],≥ 20 µM
same,Kd,[28]; [44],≥ 20 µM
same,Kd,[29]; [44],≥ 20 µM
same,Kd,[30]; [44],≥ 20 µM
same,Kd,[31]; [44],≥ 20 µM
same,Kd,[32]; [44],≥ 20 µM
same,Kd,[33]; [44],≥ 20 µM
same,Kd,[34],≥ 20 µM
same,Kd,[35]; [44],≥ 20 µM
YRKPSGGVF,Kd,[1]; [45],0.797 µM
same,Kd,[2]; [45],≥ 20 µM
same,Kd,[3]; [45],0.232 µM
same,Kd,[4]; [45],≥ 20 µM
same,Kd,[5]; [45],≥ 20 µM
same,Kd,[6]; [45],≥ 20 µM
same,Kd,[7]; [45],≥ 20 µM
same,Kd,[8]; [45],≥ 20 µM
same,Kd,[9]; [45],0.166 µM
same,Kd,[10]; [45],≥ 20 µM
same,Kd,[11]; [45],≥ 20 µM
same,Kd,[12]; [45],≥ 20 µM
same,Kd,[13]; [45],4.78 µM
same,Kd,[14]; [45],≥ 20 µM
same,Kd,[15]; [45],6.06 µM
same,Kd,[16]; [45],≥ 20 µM
AELIDSFTW,Kd,[18]; [46],≥ 20 µM
same,Kd,[19]; [46],≥ 20 µM
same,Kd,[20]; [46],0.462 µM
same,Kd,[21]; [46],≥ 20 µM
same,Kd,[22]; [46],≥ 20 µM
same,Kd,[23]; [46],≥ 20 µM
same,Kd,[24]; [46],≥ 20 µM
same,Kd,[25]; [46],≥ 20 µM
same,Kd,[26]; [46],≥ 20 µM
same,Kd,[27]; [46],≥ 20 µM
same,Kd,[28]; [46],≥ 20 µM
same,Kd,[29]; [46],≥ 20 µM
same,Kd,[30]; [46],≥ 20 µM
same,Kd,[31]; [46],≥ 20 µM
same,Kd,[32]; [46],≥ 20 µM
same,Kd,[33]; [46],≥ 20 µM
same,Kd,[35]; [46],≥ 20 µM
FLYPSWSLY,Kd,[19]; [47],≥ 20 µM
same,Kd,[21]; [47],0.101 µM
same,Kd,[24]; [47],≥ 20 µM
same,Kd,[25]; [47],≥ 20 µM
same,Kd,[27]; [47],≥ 20 µM
same,Kd,[28]; [47],0.169 µM
same,Kd,[32]; [47],≥ 20 µM
KTRMEDYYL,Kd,[18]; [48],≥ 20 µM
same,Kd,[36]; [48],≥ 20 µM
same,Kd,[19]; [48],0.151 µM
same,Kd,[20]; [48],≥ 20 µM
same,Kd,[22]; [48],≥ 20 µM
same,Kd,[24]; [48],≥ 20 µM
same,Kd,[25]; [48],≥ 20 µM
same,Kd,[26]; [48],≥ 20 µM
same,Kd,[27]; [48],≥ 20 µM
same,Kd,[28]; [48],≥ 20 µM
same,Kd,[29]; [48],≥ 20 µM
same,Kd,[30]; [48],≥ 20 µM
same,Kd,[31]; [48],≥ 20 µM
same,Kd,[35]; [48],≥ 20 µM
SFGAGTLAK,Kd,[1]; [49],≥ 20 µM
same,Kd,[2]; [49],≥ 20 µM
same,Kd,[3]; [49],≥ 20 µM
same,Kd,[4]; [49],1.97 µM
same,Kd,[5]; [49],3.9 µM
same,Kd,[6]; [49],0.383 µM
same,Kd,[7]; [49],≥ 20 µM
same,Kd,[8]; [49],≥ 20 µM
same,Kd,[9]; [49],≥ 20 µM
same,Kd,[10]; [49],≥ 20 µM
same,Kd,[11]; [49],≥ 20 µM
same,Kd,[12]; [49],≥ 20 µM
same,Kd,[13]; [49],≥ 20 µM
same,Kd,[14]; [49],≥ 20 µM
same,Kd,[15]; [49],≥ 20 µM
same,Kd,[16]; [49],0.0186 µM
QWALLPYLF,Kd,[36]; source organism: Brucella canis ATCC 23365,≤ 0.0001 µM
RRTRREAIV,IC50,[37],63.3 µM
same,IC50,[38],≥ 5060 µM
same,IC50,[17],37.7 µM
ETMKPAAMV,Kd,[1]; [48],≥ 20 µM
same,Kd,[39],≥ 20 µM
same,Kd,[2]; [48],≥ 20 µM
same,Kd,[40],≥ 20 µM
same,Kd,[41],≥ 20 µM
same,Kd,[7]; [48],≥ 20 µM
same,Kd,[8]; [48],≥ 20 µM
same,Kd,[10]; [48],≥ 20 µM
same,Kd,[12]; [48],0.0015 µM
same,Kd,[14]; [48],≥ 20 µM
same,Kd,[15]; [48],≥ 20 µM
same,Kd,[16]; [48],≥ 20 µM
